{
  "source": "paper PMC3795062",
  "biological_target": "endogenous β-catenin of HEK293 cells (human (endogenous in HEK293)) (UniProt P35222)",
  "sequence (P35222 whole entry)": "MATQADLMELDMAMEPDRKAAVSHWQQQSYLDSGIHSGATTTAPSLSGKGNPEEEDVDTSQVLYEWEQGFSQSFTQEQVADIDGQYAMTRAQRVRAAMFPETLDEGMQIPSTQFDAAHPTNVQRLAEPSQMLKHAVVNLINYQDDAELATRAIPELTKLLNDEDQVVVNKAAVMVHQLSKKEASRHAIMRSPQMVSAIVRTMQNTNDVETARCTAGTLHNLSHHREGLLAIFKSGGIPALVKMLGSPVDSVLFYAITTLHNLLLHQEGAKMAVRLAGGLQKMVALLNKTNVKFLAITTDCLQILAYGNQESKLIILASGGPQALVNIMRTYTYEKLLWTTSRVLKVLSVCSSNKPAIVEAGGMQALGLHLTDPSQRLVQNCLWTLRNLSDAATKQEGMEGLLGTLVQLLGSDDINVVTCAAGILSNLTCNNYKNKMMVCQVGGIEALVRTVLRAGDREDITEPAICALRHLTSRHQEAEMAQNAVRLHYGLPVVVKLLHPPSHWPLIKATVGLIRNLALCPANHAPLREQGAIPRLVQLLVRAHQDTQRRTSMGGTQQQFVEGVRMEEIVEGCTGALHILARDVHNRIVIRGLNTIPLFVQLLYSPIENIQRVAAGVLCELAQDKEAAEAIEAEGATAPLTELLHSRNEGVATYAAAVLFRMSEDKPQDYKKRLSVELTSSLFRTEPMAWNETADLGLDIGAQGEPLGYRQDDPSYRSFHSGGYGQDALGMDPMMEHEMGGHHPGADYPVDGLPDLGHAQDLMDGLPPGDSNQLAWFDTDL",
  "data": [
    {"substance": "WT-Nef expressed in HEK293 cells (natural protein)", "values": [
      {"measurement": "inhibition of the TopFlash (TCF-luciferase) reporter, TopFlash/FopFlash ratio, HEK293 cells with Wnt-conditioned media, 50 ng Nef plasmid", "result": 40, "unit": "%"}
    ]}
  ]
}
